Legend:
[1] = Competitive ELISA, relative CTS specificity, free MBG as competitor; format: binding; details: competition with immobilized MBG-BSA; normalized to MBG = 100%
Experimental: (§1) The specificity (relative affinity) of anti-MBG antibodies for MBG relative to various cardiotonic steroids (CTSs) was determined in a competitive ELISA. Each anti-MBG antibody was tested for its binding to immobilized MBG in the presence of free MBG, resibufogenin (RBG), cinobufagin (CINO), ouabain (OUB) or digoxin (DIG) as a competitor. A constant amount of an anti-MBG antibody (typically 1-5 μg/mL) and varying concentrations of each CTS (from 10^−12M to 10^−5M) were pre-incubated before being added to the MBG-BSA-coated wells. After washing of the wells, an anti-human Fc, HRP-conjugated secondary antibody (at 1:5000 dilution) was added to the wells and incubated at 37° C. for 1 hr. After washing of the wells, an appropriate HRP reagent (e.g., TMB ultra, Thermo Fisher) was added to the wells. OD at 450 nm was measured by a microplate reader. MBG at 10 μM was assumed to be 100% competed, and MBG at 1 pM was assumed to be 0% competed. The data was plotted as a titration of antibody-antigen binding relative to free CTS concentration in the competition reaction to determine the free CTS concentration (μM) giving 50% maximal binding of antibody to immobilized MBG. The relative specificity of an antibody for a CTS was normalized to MBG=100%.

[2] = Competitive ELISA, relative CTS specificity, OUB as competitor; format: binding; details: competition with immobilized MBG-BSA; normalized to MBG = 100%
Experimental: as §1

[3] = Competitive ELISA, free CTS competitors overall (summary and footnote); format: binding; details: competitors RBG, CINO, OUB, DIG; Table 2
Experimental: as §1

[4] = system: human umbilical cord venous endothelial cells (HUVEC); test: Reversal of MBG inhibition of HUVEC cell proliferation (3H-thymidine); format: cell-based; details: MBG 2 nM, 48 hr
Experimental: MBG (2 nM) was incubated with an antibody (20 μg/mL in FIG. 3a with human anti-MBG mAbs, or varying concentrations (2.5-10 μg/mL) in FIG. 3b with humanized anti-MBG mAbs) prior to addition to cultured human umbilical cord venous endothelial cells (HUVEC). After 48 hr, DNA synthesis was assessed by incorporation of ^3H-thymidine.
HUVEC cells in endothelial cell growth medium were plated onto 96-well plates. The next day, the cells were pretreated with various antibodies (2.5-20 μg/mL) and then incubated with 2 nM MBG for 48 hr. [^3H]-Thymidine was added to each well. [^3H]-Thymidine-labeled DNA was assayed by harvesting the cells and assaying for ^3H using a PerkinElmer Wallac Tailux liquid scintillation counter. […] Means were tested for significance using Student's t-test.

[5] = system: PKC-δ in the nucleus of primary rat cardiac fibroblasts; test: Inhibition of MBG-induced PKC-δ nuclear translocation (Western blot); details: MBG 2 nM; nuclei isolated 30 min later; FIG. 2a
Experimental: MBG was incubated with an anti-MBG antibody prior to addition to cultured primary rat cardiac fibroblasts. Nuclei were isolated 30 min later and analyzed for amount of PKC-6.

[6] = Competitive ELISA, relative CTS specificity, CINO as competitor; format: binding; details: competition with immobilized MBG-BSA; normalized to MBG = 100%
Experimental: as §1

[7] = Competitive ELISA, relative CTS specificity, DIG as competitor; format: binding; details: competition with immobilized MBG-BSA; normalized to MBG = 100%
Experimental: as §1

[8] = ELISA avidity estimate on MBG-BSA; format: binding; details: wells coated with 2 μg/ml MBG-BSA; IgG
Experimental: (§2) The avidity of anti-MBG antibodies for MBG was estimated in an ELISA. Wells of a microtiter plate were coated with 2 μg/ml of either MBG-bovine serum albumin (BSA) or MBG-keyhole limpet hemocyanin (KLH). The wells were then blocked with 1% BSA. A test IgG antibody at varying concentrations (typically from about 0.0001 nM to about 25 nM) was added to the wells. The test IgG bound to immobilized MBG was detected with an anti-human Fc, horseradish peroxidase (HRP)-conjugated secondary antibody (Jackson ImmunoResearch). After washing of the wells, an appropriate HRP reagent (e.g., TMB ultra, Thermo Fisher) was added to the wells. Optical density (OD) at 450 nm was measured by a microplate reader. The concentration of test antibody at the midpoint of the binding curve is an estimate of avidity for MBG.

[9] = ELISA avidity estimate on MBG-KLH; format: binding; details: wells coated with 2 μg/ml MBG-KLH; IgG
Experimental: as §2

[10] = Competitive ELISA, relative CTS specificity, RBG as competitor; format: binding; details: competition with immobilized MBG-BSA; normalized to MBG = 100%
Experimental: as §1

Molecule	Rel. CTS Specificity as % of MBG Binding: MBG [1] [%]	Rel. CTS Specificity as % of MBG Binding: OUB [2] [%]	reaction with CTS competitor molecules [3]	amount of PKC-δ in the nucleus, MBG plus antibody [5]	Rel. CTS Specificity as % of MBG Binding: CINO [6] [%]	Rel. CTS Specificity as % of MBG Binding: DIG [7] [%]	further results
R4CE-10H: human anti-MBG antibody, VH SEQ ID NO: 80, VL SEQ ID NO: 81 (antibody, listed as Homo sapiens) VH: QLQLQESGPGLVKPSQTLSLTCTVSGGSISSGGYYWSWIRQPPGKGLEWIGSIYHSGSTYYNPSLKSRVTISVDTSKNQFSLKLSSVTAADTAVYYCARVMYYYGSGSPYWYFDLWGRGTLVTVSS light: QSVVTQPPSVSAAPGQKVTISCSGSSSNIGKNFVSWYQQFPGTAPKFLIYENSKRPSGIPDRISGSKSGTSATLAITGLQTGDEADYYCGTWDSSLSAVVFGGGTKLTVLSQPKAAPSVTLFPPSSEELQANKATLVCLISDFYPGAVTVAWKADSSPVKAGVETTTPSKQSNNKYAASSY	100						
238/239: human anti-MBG antibody, VH SEQ ID NO: 41, VL SEQ ID NO: 42 (antibody, listed as Homo sapiens, V domains shown) VH: QLQLQESGPGLVKPSETLSLTCTVSGGSISSSSYYWGWIRQPPGKGLEWIGSIYYSGSTYYNPSLKSRVTISVDTSKNQFSLKLSSVTAADTAVYYCARVVVARTGTTISWFDPWGQGTLVTVSS VL: QAVLTQPSSLSASPGASASLTCTLRSGINVDTYRIYWYQQKPGSPPQYLLRYKSDSDKQQGSGVPSRFSGSKDASANAGILLISGLQSEDEADYYCVIWHSSAWVFGGGTKLTVL	100	10	reacted with the CTS competitor OUB	to a lesser extent			MBG inhibition of HUVEC cell proliferation, human mAbs ([4]; antibody 20 μg/mL, FIG. 3a): significantly reduced
H3L1: humanized anti-MBG antibody, VH H3 (SEQ ID NO: 11) with VL L1 (SEQ ID NO: 12) (antibody, V domains shown, Humanized VH sequence; Humanized VL sequence) VH: EVQLQESGPGLVKPSETLSLTCTVSGDSITSGYWNWIRQPPGKGLEYMGYISYSGTTYYNPSLKSRITISRDTSKNQYSLKLSSVTAADTAVYYCARARYGYGFDYWGQGTLVTVSS VL: DVVMTQSPLSLPVTLGQPASISCRSSQSIVHSNRNTYLEWFQQRPGQSPRRLIYKVSNRFSGVPDRFSGSGSGTDFTLKISRVEAEDVGVYYCFQGSHVPLTFGGGTKVEIK				reduced			
H2L2: humanized anti-MBG antibody, VH H2 (SEQ ID NO: 10) with VL L2 (SEQ ID NO: 13) (antibody, V domains shown, Humanized VH sequence; Humanized VL sequence) VH: EVQLQESGPGLVKPSETLSLTCTVSGDSITSGYWNWIRQPPGKGLEYIGYISYSGTTYYNPSLKSRVTISRDTSKNQFSLKLSSVTAADTAVYYCARARYGYGFDYWGQGTLVTVSS VL: DVVMTQSPLSLPVTLGQPASISCRSSQSIVHSNRNTYLEWYQQRPGQSPRLLIYKVSNRFSGVPDRFSGSGSGTDFTLKISRVEAEDVGVYYCFQGSHVPLTFGGGTKVEIK				to a lesser extent			MBG inhibition of HUVEC cell proliferation, humanized mAbs ([4]; antibody 2.5-10 μg/mL, FIG. 3b): significantly reduced
H2L1: humanized anti-MBG antibody, VH H2 (SEQ ID NO: 10) with VL L1 (SEQ ID NO: 12) (antibody, V domains shown, Humanized VH sequence; Humanized VL sequence) VH: EVQLQESGPGLVKPSETLSLTCTVSGDSITSGYWNWIRQPPGKGLEYIGYISYSGTTYYNPSLKSRVTISRDTSKNQFSLKLSSVTAADTAVYYCARARYGYGFDYWGQGTLVTVSS VL: DVVMTQSPLSLPVTLGQPASISCRSSQSIVHSNRNTYLEWFQQRPGQSPRRLIYKVSNRFSGVPDRFSGSGSGTDFTLKISRVEAEDVGVYYCFQGSHVPLTFGGGTKVEIK				to a lesser extent			
205/207: human anti-MBG antibody, VH SEQ ID NO: 53, VL SEQ ID NO: 54 (antibody, listed as Homo sapiens, V domains shown) VH: QLQLQESGPGLVKPSETLSLTCTVSGGSISSSSYYWGWIRQPPGKGLEWIGSIYYSGSTYYNPSLKSRVTISVDTSKNQFSLKLSSVTAADTAVYYCARFHTWAPRAFDIWGQGTMVTVSS VL: QSVVTQPPSVSAAPGQEVTISCSGSSSNIGNNYVSWYQQLPGTAPKLLIYDNNKRPSGIPDRFSGSKSGTSATLGITGLQTGDEADYYCGTWDSSLSALFGGGTKLTVL	100	0			0	0	
203/204: human anti-MBG antibody, VH SEQ ID NO: 30, VL SEQ ID NO: 31 (antibody, listed as Homo sapiens, V domains shown) VH: QLQLQESGPGLVKPSETLSLTCTVSGGSISSYYWGWIRQPPGKGLEWIGSIYYSGSTYYNPSLKSRVTISVDTSKNQFSLQLKSVTPEDTAVYYCARVRPPAATFDYWGQGTLVTVSS VL: QSVVTQPPSVSAAPGQKVSISCSGGSSNIGNNYVSWYQQLPGTAPRLLIYENNNRPSGIPDRFSGSKSGTSATLGITGLQTGDEADYYCGTWDSSLRAVVFGGGTKLTVL	100	0	reacted with CTS competitor RBG		0	0	Estimated avidity (KA) (antibody concentration at 50% maximal binding to antigen, or EC50), Antigen 1 (MBG-BSA) [8]: 0.32 nM; Estimated avidity (KA) (antibody concentration at 50% maximal binding to antigen, or EC50), Antigen 2 (MBG-KLH) [9]: 0.20 nM; Rel. CTS Specificity as % of MBG Binding: RBG [10]: 10%
1B-6C: human anti-MBG antibody, VH SEQ ID NO: 87, VL SEQ ID NO: 88 (antibody, listed as Homo sapiens) VH: QVQLQESGPGLVKPSETLSLTCTVSGGSISSSSYYWGWIRQPPGKGLEWIGSIYYSGSTYYNPSLKSRVTISLDTSKNQFSLKLSSLTAADTAVYYCARVPAIRSSAIFDYWGQGTLVTVSS light: QSVVTQPPSVSAAPGQKVTISCFGSRSNIGNNYVSWYQQFPGTAPQLLIFDNNKRPSGIPDRFSGSKSGTSASLGITGVQTGDEAEYYCGAWDSSLSAGAVFGGGTKLTVLGQPKAAPSVTLFPPSSEELQANKATLVCLISDFYPGAVTVAWKADSSPVKAGVETTTPSKQSNNKYAASSYLSLTPEQWKSHRSYSCQVTHEGSTVEKTVAPTECS	100						
2A-5A: human anti-MBG antibody, VH SEQ ID NO: 100, VL SEQ ID NO: 101 (antibody, listed as Homo sapiens) VH: QVQLQESGPGLVKPSETLSLTCTVSGGSISSSSYYWGWIRQPPGKGLEWIGSIYYSGSTYYNPSLKSRVTISVDTSKNQFSLKLSSVTAADTAVYYCARFSRGGPFLWGRGTLVTVSS light: QSVVTQPPSVSAAPGQKVTISCSGSSSNIGSYSVSWYQQLPGTAPKLLIYDNNKRPSGIPDRFSGSKSGTSATLGITGLQTGDEADYYCGTWDSSLSAYVFGSGTKVTVLGQPKANPTVTLFPPSSEELQANKATLVCLISDFYPGAVTVAWKADGSPVKAGVETTKPSKQSNNKYAASSYLSLTPEQWKSHRSYSCQVTHEGSTVEKTVAPTECS	100	0	reacted with the CTS competitors RBG, CINO and DIG		2.5	2.5	Rel. CTS Specificity as % of MBG Binding: RBG [10]: 10%
